Here are results for three molecules from publication doi:10.1101/2022.09.26.509487, “DNA methylation at a single cytosine embedded in the W-box cis-element repels binding of WRKY transcription factors through steric hindrance”.

The labels stand for the following.
T1: AtWRKY40 DBD (Arabidopsis thaliana, UniProt Q9SAH7 131-207)
T1 sequence: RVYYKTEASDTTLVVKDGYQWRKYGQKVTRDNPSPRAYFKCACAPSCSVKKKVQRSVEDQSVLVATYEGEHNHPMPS

B1: RLP43 W-box 5mC4 (dsDNA)
DNA 1: CGTAGGGTCAAGCTGT
DNA 2: ACAGCTTGACCCTACG
modifications: 5-methyl-dC at forward strand position 9 (W-box C4)
B2: RLP43 W-box, unmethylated (dsDNA)
DNA 1: CGTAGGGTCAAGCTGT
DNA 2: ACAGCTTGACCCTACG
B3: RLP43 W-box 5mC4 + 5mC1 5mC2 (dsDNA)
DNA 1: CGTAGGGTCAAGCTGT
DNA 2: ACAGCTTGACCCTACG
modifications: 5-methyl-dC at forward position 9 (C4) and reverse positions 10 and 11 (C2, C1)

In the data set the target is T1, AtWRKY40 DBD. Briefly: BLI; steady state; BLI (Octet RED96e, SA sensors): 50 mM Hepes pH 7, 150 mM NaCl, 0.05% Tween20, 25 C, 1000 rpm; duplex loaded at 40 nM, protein 0.25-10 uM. Conditions: protein: recombinant; tags: N-terminal 6xHis (pET28a); label: biotin on forward strand (printed at 5' end); blunt. Background: Biolayer interferometry detects binding as a change in optical thickness at a sensor tip.
Broadly, the Kd is the free concentration of one partner at which half of the binding sites on the other are occupied at equilibrium, for simple one-to-one binding. With B1, the Kd came out at 12 µM.
In the case of B2, the Kd is 0.63 µM.
Turning to B3, the Kd was 9.2 µM.
